Patent US20180094062A1 (Hoffmann-La Roche, published 2018)
Where a chain is given by its changes, count along the chain named. Values belong to the binder of their own block, whether it stands above or below them.

Columns and labels:
[1] = target: T1, HER1 (EGFR) ECD peptide hairpin, overlapping immobilized 15-mer peptides (human, UniProt P00533 265-283, limits assumed); experiment: CelluSpots array of overlapping 15-mer peptides
T1 construct: domain: peptide hairpin (β-hairpin); CelluSpots 15-mer library; cysteines replaced by serines; also called hairpin motive in EGFR
T1 peptide (looked up): PPLMLYNPTTYQMDVNPEG

[2] = target: T2, HER2 ECD peptide hairpin, overlapping immobilized 15-mer peptides (human, UniProt P04626 269-287, limits assumed); experiment: CelluSpots array of overlapping 15-mer peptides
T2 construct: domain: peptide hairpin (β-hairpin); CelluSpots 15-mer library; cysteines replaced by serines; also called hairpin motive in the HER2 ECD
T2 peptide (looked up): PALVTYNTDTFESMPNPEG

SBP-tagged HER3-ECD = target: T3, SBP-tagged HER3-ECD (human, UniProt P21860 20-643); experiment: plate assay: SBP-tagged HER3-ECD on streptavidin plate, antibody titrated, 10 nM Europium-labeled Heregulin-beta detected by time-resolved fluorescence; half-maximal rise of the Heregulin signal
T3 construct: not shown: SBP tag
Description: On the next day the wells were washed three times with washing buffer (PBS+0.05% Tween-20) and blocked with PBS containing 1% BSA for one hour. After another three washes with washing buffer, 40 μl antibody solution (in Delfia Binding Buffer) was added to each well as a 2× stock of the desired final concentrations (10⁻³ to 10³ nM, alternatively 10⁻⁴ to 10² nM). Immediately […] of 20 nM Europium-labeled Heregulin-beta (PeproTech, Cat. #100-03) was added to achieve a final concentration of 10 nM. The plates were incubated on a shaker at room temperature for two hours. Following three washes with Delfia Wash Buffer, Delfia Enhancement Solution was added and incubated on a shaker for 15 minutes (light protected). Finally, the plates were measured in a Tecan Infinite F200 reader using a time-resolved fluorescence measurement protocol.

[3] = target: T4, HER3 ECD-HRG complex (Heregulin-activated Her-3 ECD) (human, UniProt P21860 20-643); experiment: SPR, Interaction Map (TraceDrawer), two-state-kinetic no. 2, 25 C
T4 construct: receptor-ligand complex made by preincubating HER3 ECD with a five-fold molar excess of Heregulin; also called Heregulin/Her-3 ECD; Heregulin-complexed Her-3 ECD

TtSlyD-Wildtype = target: T5, TtSlyD-Wildtype; experiment: SPR, antibody captured, 25 C
T5 construct: scaffold without insert; N-terminal methionine can be present or not; also called T.T.SlyD-wt; wild type Thermus thermophilus SlyD protein
T5 chain: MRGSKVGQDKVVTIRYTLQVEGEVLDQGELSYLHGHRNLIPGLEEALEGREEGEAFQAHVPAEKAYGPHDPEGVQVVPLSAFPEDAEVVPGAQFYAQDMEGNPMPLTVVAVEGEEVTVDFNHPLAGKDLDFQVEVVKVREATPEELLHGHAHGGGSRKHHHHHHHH

[4] = target: T6, human Heregulin fragment (HRG) (human); experiment: SPR Biacore T200, antibody captured, 25 C
T6 construct: a 44 kDa homodimeric protein, expressed in FreeStyle 293-F cells; also called Heregulin beta (HRG)
T6 chain: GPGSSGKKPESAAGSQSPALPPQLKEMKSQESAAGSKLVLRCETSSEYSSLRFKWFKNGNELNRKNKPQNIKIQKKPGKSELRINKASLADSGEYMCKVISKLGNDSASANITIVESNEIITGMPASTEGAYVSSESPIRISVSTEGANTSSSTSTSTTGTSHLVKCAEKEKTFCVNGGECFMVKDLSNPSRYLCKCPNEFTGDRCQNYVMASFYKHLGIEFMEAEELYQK
Description: (§1) A Biacore T200 instrument (GE Healthcare) was mounted with a CM5 series sensor. The sensor was normalized in HBS-ET buffer (10 mM HEPES pH 7.4, 150 mM NaCl, 3 mM EDTA, 0.05% w/v Tween 20) according to the manufacturer's instructions. The sample buffer was the system buffer supplemented with 1 mg/ml CMD (Carboxymethyldextran, Sigma #86524). The system operated at 25° C. 6500 RU RAM-Fcγ (relative units of Fcγ-fragment RamlgG, GE Healthcare) were immobilized according to the manufacturer's instructions using amine coupling EDC/NHS chemistry on all four flow cells. The sensor was deactivated using 1M ethanolamine. […] Concentration dependent kinetics were measured. […] All analytes were injected for 5 min association time and 10 min dissociation time at 100 μl/min flow rate. The sensor capture system was regenerated by a 3 min injection at 10 μl/min of 10 mM glycine pH 1.7. Where possible kinetic data was evaluated using the Biacore T200 evaluation software.

[5] = target: T7, HER4 ECD-HRG complex (Heregulin-complexed Her-4 ECD) (human, UniProt Q15303 26-651); experiment: SPR Biacore T200, antibody captured, 25 C
T7 construct: Her-4 ECD incubated with a 5-fold molar excess of Heregulin
T7 sequence 1: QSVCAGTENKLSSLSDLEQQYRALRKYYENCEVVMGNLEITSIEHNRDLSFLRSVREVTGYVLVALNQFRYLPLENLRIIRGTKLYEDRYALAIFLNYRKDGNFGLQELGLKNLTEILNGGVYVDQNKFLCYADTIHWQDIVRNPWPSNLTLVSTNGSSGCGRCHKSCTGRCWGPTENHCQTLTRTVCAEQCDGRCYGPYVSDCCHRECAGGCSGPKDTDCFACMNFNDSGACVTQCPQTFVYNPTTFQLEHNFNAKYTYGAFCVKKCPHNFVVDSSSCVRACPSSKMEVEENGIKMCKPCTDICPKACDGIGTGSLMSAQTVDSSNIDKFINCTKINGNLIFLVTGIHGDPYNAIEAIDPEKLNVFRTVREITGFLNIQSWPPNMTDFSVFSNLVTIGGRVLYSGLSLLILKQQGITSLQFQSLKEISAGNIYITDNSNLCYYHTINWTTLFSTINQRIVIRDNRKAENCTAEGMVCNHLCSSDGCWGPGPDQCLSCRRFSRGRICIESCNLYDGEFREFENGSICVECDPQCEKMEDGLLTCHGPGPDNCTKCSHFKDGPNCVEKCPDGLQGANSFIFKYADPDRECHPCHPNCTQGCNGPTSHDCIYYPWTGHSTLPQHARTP
T7 sequence 2: T6 chain
Description: as §1

TtSlyDcys-Her3 = target: T8, TtSlyDcys-Her3; experiment: ELISA, antigen coated, hybridoma supernatant
T8 chain: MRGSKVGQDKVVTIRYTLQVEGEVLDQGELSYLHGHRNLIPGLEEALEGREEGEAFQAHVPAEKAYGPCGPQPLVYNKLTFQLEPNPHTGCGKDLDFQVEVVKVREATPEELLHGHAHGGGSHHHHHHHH
Description: For the ELISA screening an antigen down format was used. […] Hybridoma Supernatant was added to the plates and incubated for 1 h at room temperature. Bound antibody was detected with a HRP-labeled F(ab′)₂ goat anti-mouse Fcγ (Dianova) and ABTS (Roche) was used as a HRP-substrate.
As negative controls the scaffold proteins TtSlyDcas and TgSlyDΔIF were used.

binding result [1]: no binding (tested: 1 µg/mL) | binding result [2]: no binding (tested: 1 µg/mL) | EC50 (read off the curve) (SBP-tagged HER3-ECD): ~7 nM | Kd [3]: 23 nM | Weight (contribution to the overall interaction) [3]: 6% | koff [3]: 0.000449 s⁻¹ | kon [3]: 19500 M⁻¹ s⁻¹
B1: anti-HER3 antibody M-08-11 (antibody, V domains shown)
VH: QAYLQQSGAELMRPGASVRMSCQASGYTFTSYTIHWLKQTPRQGLEWIGAIYPRNGDFSYNQKFKDKASLTVDTSSSTAYMHLSSLTSEDSAVYFCARTINYGDWFAYWGQGTLVTVSA
VL: DIQMIQSPASLFVSEGETVIITCRASENIYSNLAWYHQKKGKSPQVLVYAAIKLADGVPLRFSGSGSGTQFSLKINSLQSEDFGSYYCQHFWGPPYTFGSGTNLEIK
notes: mouse monoclonal antibody from hybridoma, tested as hybridoma supernatant or as antibody; also called M-011

EC50 (read off the curve) (SBP-tagged HER3-ECD): ~2 nM | binding result (TtSlyD-Wildtype): no binding | Kd [3]: 15.7 nM | Weight (contribution to the overall interaction) [3]: 7% | koff [3]: 0.000774 s⁻¹ | kon [3]: 49400 M⁻¹ s⁻¹ | binding result [4]: no binding (tested: 450 nM) | binding result [5]: no binding (tested: 90 nM)
B2: anti-HER3 antibody M-46-01 (antibody, V domains shown)
VH: QIQLQQSGPQLVRPGASVKISCKASGYSFTSYWMHWVKQRPGRGLEWIGMIDPSDGVTRLNQKFKDKATLTVDNSSSTAYMQLSSPTSEDSAVHYCARVDVLYWYFDVWGAGTTVTVSS
VL: DIVLTQSPASLAVSLGQRATISCRASKSISISGYSYMHWYQQKAGQPPKLLIYLTSNLESGVPARFSGSGSGTDFTLNIHPVEEEDAATYYCHHSRELPFTFGSGTKLEIK
notes: mouse hybridoma clone

OD 405 nm (TtSlyDcys-Her3): 1.55 OD
B3: anti-HER3 antibody M-17-02 (antibody, V domains shown)
VH: EVQLQQSGTVLARPGASVKMSCKASGYSFTSYWIHWVKQRPGQGLEWIGAIYPGNSDTTYNQKFKGKAKLTAVTSASTAYMELSSLTNEDSAVYYCARTGVWTSYYFDYWGQGTTLTVSS
VL: DIQMTQSPASLSASVGETVTITCRASENIYSNLAWYQQKQGKSPQLLVYAATNLADGVPSRFSGSGSGTQFSLRINSLQPEDFGSYYCQHFYGTPFTFGTGTKLEIK
notes: mouse hybridoma clone

binding result (TtSlyD-Wildtype): no binding | Kd [3]: 62 nM | Weight (contribution to the overall interaction) [3]: 13% | koff [3]: 0.000988 s⁻¹ | kon [3]: 15900 M⁻¹ s⁻¹ | binding result [4]: no binding (tested: 450 nM) | binding result [5]: no binding (tested: 90 nM) | OD 405 nm (TtSlyDcys-Her3): 3.5 OD
B4: anti-HER3 antibody M-43-01 (antibody, V domains shown)
VH: EVQLQQSGTVLARPGASVKMSCKASDYTFSNYWVHWVKQRPGQGLEWIGAIYPGNGDSTYYQKFKGKATLTAVTSTSTAYMDLSSLTNGDSAVYFCTRSGVGYNYYFDYWGQGTTLTVSS
VL: B3 VL with A50I, R74K, F83L, K107E
notes: mouse hybridoma clone
